Where “and” joins values, the source holds several entries; their conditions need not be identical. Identical values can stand only once.
Legend:
human GPRC5D [1] = biological target: T1, human GPRC5D (human, UniProt Q9NZD1 1-345); experiment: cell ELISA, CHO hu GPRC5D (EC/IC50 rel)
T1 construct: also called G protein-coupled receptor class C group 5 member D; hu GPCR5D
Description: Stable transfected CHO clones expressing either human GPRCSD or cynomolgus GPRCSD or murine GPRCSD or human GPRCSA were used to analyze the binding of potential lead candidate antibodies as IgGs. In detail, 10⁴ cells (viability≥98%) were seeded into 384 well-microtiter plates (BD Poly D-Lysin, #356662, volume: 25 μl/well) using fresh culture medium. After overnight incubation at 37° C., 25 μl/well dilutions of antibodies were added (15×1:3 dilutions in 1×PBS, assay conc. starts at 30 μg/ml) to the cells for 2 hours at 4° C. After one washing step using 90 μl/well PBST (10×PBS, Roche, #11666789001+0.1% Tween 20), cells were subsequently fixed by the addition of 50 μl/well 0.05% glutaraldehyde (Sigma Cat. No: G5882 in 1×PBS) for 10 min at room temperature (RT). After three additional washing steps using 90 μl/well PBST, secondary antibodies were added for detection: for human antibodies goat anti-human Ig a chain antibody HRP conjugate (Millipore #AP502P) diluted 1:2000 in blocking buffer (1×PBS (Roche #11666789001)+2% BSA (Bovine Serum Albumin Fraction V, fatty acid free, Roche, #10735086001)+0.05% Tween 20) was used (25 μl/well). […] After incubation for 1 h at RT and three additional washing steps using 90 μl/well PBST, 25 μl/well TMB substrate was added (Roche order no. 11835033001) for 10 min and color development to final ODs was determined by measurement at 370 nm/492 nm.
For the characterization of the humanization variants of the VH and VL domains of the GPRC5D binders the ELISA protocol as described above was used (see Example 7). The data are summarized in the table 10 for the humanization variants of 5E11 and in table 11 for the humanization variants of 5F11.

human GPRC5D [2] = biological target: T1, human GPRC5D; experiment: cell-based or functional assay

T1 sequence (Q9NZD1 whole entry): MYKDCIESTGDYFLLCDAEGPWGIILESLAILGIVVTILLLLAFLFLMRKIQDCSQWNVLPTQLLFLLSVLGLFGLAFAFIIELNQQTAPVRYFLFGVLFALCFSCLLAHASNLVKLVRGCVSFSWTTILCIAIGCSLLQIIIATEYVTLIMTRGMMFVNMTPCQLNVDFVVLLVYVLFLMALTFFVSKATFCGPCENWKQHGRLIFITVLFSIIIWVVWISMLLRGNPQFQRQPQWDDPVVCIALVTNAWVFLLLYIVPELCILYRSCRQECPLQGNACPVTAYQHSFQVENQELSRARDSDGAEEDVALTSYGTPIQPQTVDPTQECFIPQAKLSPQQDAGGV

| EC50 (human GPRC5D [1]) | CAR-J2 EC50 [ng/mL] (PGLALA-CAR-J activation, L363 target cells) (human GPRC5D [2]) | Binder |
| --- | --- | --- |
| 0.004 µg/mL and 0.03 nM | 23.5 ng/mL | P1AE5739 (antibody, V domains shown, Humanized 5F11 IgG; PGLALA Fc implied by the CAR-J assay; also called 5F11_VH1b + 5F11_VL1a) VH: EVQLVESGGGVVQPGRSLRLSCAASGFSFSNYGMAWVRQAPGKGLEWVASISTGGGNTYYRDSVKGRFTISRDNAKNTLYLQMNSLRAEDTAVYYCTRHDRGGLYWGQGTMVTVSS VL: DIVMTQSPLSLPVTPGEPASISCRSSKSLLHSNGITYVYWYLQKPGQSPQVLIYRMSNLASGVPDRFSGSGSGTDFTLKISRVEAEDVGVYHCGQLLENPYTFGQGTKLEIK |
| 0.0061 µg/mL and 0.04 nM | 61.9 ng/mL | P1AE5742 (antibody, V domains shown, Humanized 5F11 IgG; PGLALA Fc implied by the CAR-J assay; also called 5F11_VH1b + 5F11_VL2b) VH: EVQLVESGGGVVQPGRSLRLSCAASGFSFSNYGMAWVRQAPGKGLEWVASISTGGGNTYYRDSVKGRFTISRDNAKNTLYLQMNSLRAEDTAVYYCTRHDRGGLYWGQGTMVTVSS VL: DIVMTQSPDSLAVSLGERATINCKSSKSLLHSNGITYVYWYQQKPGQPPKLLIYRMSNLASGVPDRFSGSGSGTDFTLTISSLQAEDVAVYHCGQLLENPYTFGQGTKLEIK |
| 0.0046 µg/mL and 0.03 nM | 84.2 ng/mL | P1AE5762 (antibody, V domains shown, Humanized 5F11 IgG; PGLALA Fc implied by the CAR-J assay; also called 5F11_VH2d + 5F11_VL2a) VH: EVQLVESGGGLVQPGGSLRLSCAASGFSFSNYGMAWVRQAPGKGLEWVASISTGGGNTYYADSVKGRFTISRDNAKNTLYLQMNSLRAEDTAVYYCTRHDRGGLYWGQGTMVTVSS VL: DIVMTQSPLSLPVTPGEPASISCRSSKSLLHSNGITYVYWYLQKPGQSPQLLIYRMSNRASGVPDRFSGSGSGTDFTLKISRVEAEDVGVYHCGQLLENPYTFGQGTKLEIK |
| 0.0094 µg/mL and 0.06 nM | 20.6 ng/mL | P1AE5750 (antibody, V domains shown, Humanized 5F11 IgG; PGLALA Fc implied by the CAR-J assay; also called 5F11_VH1d + 5F11_VL1a) VH: EVQLVESGGGVVQPGRSLRLSCAASGFSFSNYGMAWVRQAPGKGLEWVASISTGGGNTYYADSVKGRFTISRDNAKNTLYLQMNSLRAEDTAVYYCTRHDRGGLYWGQGTMVTVSS VL: DIVMTQSPLSLPVTPGEPASISCRSSKSLLHSNGITYVYWYLQKPGQSPQVLIYRMSNLASGVPDRFSGSGSGTDFTLKISRVEAEDVGVYHCGQLLENPYTFGQGTKLEIK |
| 0.004 µg/mL and 0.03 nM | 190 ng/mL | P1AE5760 (antibody, V domains shown, Humanized 5F11 IgG; PGLALA Fc implied by the CAR-J assay; also called 5F11_VH2d + 5F11_VL1a) VH: EVQLVESGGGLVQPGGSLRLSCAASGFSFSNYGMAWVRQAPGKGLEWVASISTGGGNTYYADSVKGRFTISRDNAKNTLYLQMNSLRAEDTAVYYCTRHDRGGLYWGQGTMVTVSS VL: DIVMTQSPLSLPVTPGEPASISCRSSKSLLHSNGITYVYWYLQKPGQSPQVLIYRMSNLASGVPDRFSGSGSGTDFTLKISRVEAEDVGVYHCGQLLENPYTFGQGTKLEIK |
| 0.0078 µg/mL and 0.05 nM | 152 ng/mL | P1AE5755 (antibody, V domains shown, Humanized 5F11 IgG; PGLALA Fc implied by the CAR-J assay; also called 5F11_VH2b + 5F11_VL1a) VH: EVQLVESGGGLVQPGGSLRLSCAASGFSFSNYGMAWVRQAPGKGLEWVASISTGGGNTYYRDSVKGRFTISRDNAKNTLYLQMNSLRAEDTAVYYCTRHDRGGLYWGQGTMVTVSS VL: DIVMTQSPLSLPVTPGEPASISCRSSKSLLHSNGITYVYWYLQKPGQSPQVLIYRMSNLASGVPDRFSGSGSGTDFTLKISRVEAEDVGVYHCGQLLENPYTFGQGTKLEIK |
| 0.0107 µg/mL and 0.07 nM | 514 ng/mL | P1AE5746 (antibody, V domains shown, Humanized 5F11 IgG; PGLALA Fc implied by the CAR-J assay; also called 5F11_VH1c + 5F11_VL2a) VH: QVQLVESGGGVVQPGRSLRLSCAASGFSFSNYGMAWVRQAPGKGLEWVASISTGGGNTYYADSVKGRFTISRDNSKNTLYLQMNSLRAEDTAVYYCTRHDRGGLYWGQGTMVTVSS VL: DIVMTQSPLSLPVTPGEPASISCRSSKSLLHSNGITYVYWYLQKPGQSPQLLIYRMSNRASGVPDRFSGSGSGTDFTLKISRVEAEDVGVYHCGQLLENPYTFGQGTKLEIK |
| 0.0066 µg/mL and 0.04 nM | 82.1 ng/mL | P1AE5735 (antibody, V domains shown, Humanized 5F11 IgG; PGLALA Fc implied by the CAR-J assay; also called 5F11_VH1a + 5F11_VL1b) VH: QVQLVESGGGVVQPGRSLRLSCAASGFSFSNYGMAWVRQAPGKGLEWVASISTGGGNTYYRDSVKGRFTISRDNSKNTLYLQMNSLRAEDTAVYYCTRHDRGGLYWGQGTMVTVSS VL: DIVMTQSPLSLPVTPGEPASISCRSSKSLLHSNGITYVYWYLQKPGKSPQVLIYRMSNLASGVPDRFSGSGSGTDFTLKISRVEAEDVGVYHCGQLLENPYTFGQGTKLEIK |
| 0.0124 µg/mL and 0.08 nM | 6.44 ng/mL | P1AE5751 (antibody, V domains shown, Humanized 5F11 IgG; PGLALA Fc implied by the CAR-J assay; also called 5F11_VH1d + 5F11_VL1b) VH: EVQLVESGGGVVQPGRSLRLSCAASGFSFSNYGMAWVRQAPGKGLEWVASISTGGGNTYYADSVKGRFTISRDNAKNTLYLQMNSLRAEDTAVYYCTRHDRGGLYWGQGTMVTVSS VL: DIVMTQSPLSLPVTPGEPASISCRSSKSLLHSNGITYVYWYLQKPGKSPQVLIYRMSNLASGVPDRFSGSGSGTDFTLKISRVEAEDVGVYHCGQLLENPYTFGQGTKLEIK |
| 0.0078 µg/mL and 0.05 nM | 170 ng/mL | P1AE5756 (antibody, V domains shown, Humanized 5F11 IgG; PGLALA Fc implied by the CAR-J assay; also called 5F11_VH2b + 5F11_VL1b) VH: EVQLVESGGGLVQPGGSLRLSCAASGFSFSNYGMAWVRQAPGKGLEWVASISTGGGNTYYRDSVKGRFTISRDNAKNTLYLQMNSLRAEDTAVYYCTRHDRGGLYWGQGTMVTVSS VL: DIVMTQSPLSLPVTPGEPASISCRSSKSLLHSNGITYVYWYLQKPGKSPQVLIYRMSNLASGVPDRFSGSGSGTDFTLKISRVEAEDVGVYHCGQLLENPYTFGQGTKLEIK |
| 0.0055 µg/mL and 0.04 nM | 41.5 ng/mL | P1AE5734 (antibody, V domains shown, Humanized 5F11 IgG; PGLALA Fc implied by the CAR-J assay; also called 5F11_VH1a + 5F11_VL1a) VH: QVQLVESGGGVVQPGRSLRLSCAASGFSFSNYGMAWVRQAPGKGLEWVASISTGGGNTYYRDSVKGRFTISRDNSKNTLYLQMNSLRAEDTAVYYCTRHDRGGLYWGQGTMVTVSS VL: DIVMTQSPLSLPVTPGEPASISCRSSKSLLHSNGITYVYWYLQKPGQSPQVLIYRMSNLASGVPDRFSGSGSGTDFTLKISRVEAEDVGVYHCGQLLENPYTFGQGTKLEIK |
| 0.0029 µg/mL and 0.02 nM | 145 ng/mL | P1AE5757 (antibody, V domains shown, Humanized 5F11 IgG; PGLALA Fc implied by the CAR-J assay; also called 5F11_VH2b + 5F11_VL2a) VH: EVQLVESGGGLVQPGGSLRLSCAASGFSFSNYGMAWVRQAPGKGLEWVASISTGGGNTYYRDSVKGRFTISRDNAKNTLYLQMNSLRAEDTAVYYCTRHDRGGLYWGQGTMVTVSS VL: DIVMTQSPLSLPVTPGEPASISCRSSKSLLHSNGITYVYWYLQKPGQSPQLLIYRMSNRASGVPDRFSGSGSGTDFTLKISRVEAEDVGVYHCGQLLENPYTFGQGTKLEIK |
| 0.0037 µg/mL and 0.02 nM | 74.6 ng/mL | P1AE5761 (antibody, V domains shown, Humanized 5F11 IgG; PGLALA Fc implied by the CAR-J assay; also called 5F11_VH2d + 5F11_VL1b) VH: EVQLVESGGGLVQPGGSLRLSCAASGFSFSNYGMAWVRQAPGKGLEWVASISTGGGNTYYADSVKGRFTISRDNAKNTLYLQMNSLRAEDTAVYYCTRHDRGGLYWGQGTMVTVSS VL: DIVMTQSPLSLPVTPGEPASISCRSSKSLLHSNGITYVYWYLQKPGKSPQVLIYRMSNLASGVPDRFSGSGSGTDFTLKISRVEAEDVGVYHCGQLLENPYTFGQGTKLEIK |
| 0.0063 µg/mL and 0.04 nM | 8.96 ng/mL | P1AE5740 (antibody, V domains shown, Humanized 5F11 IgG; PGLALA Fc implied by the CAR-J assay; also called 5F11_VH1b + 5F11_VL1b) VH: EVQLVESGGGVVQPGRSLRLSCAASGFSFSNYGMAWVRQAPGKGLEWVASISTGGGNTYYRDSVKGRFTISRDNAKNTLYLQMNSLRAEDTAVYYCTRHDRGGLYWGQGTMVTVSS VL: DIVMTQSPLSLPVTPGEPASISCRSSKSLLHSNGITYVYWYLQKPGKSPQVLIYRMSNLASGVPDRFSGSGSGTDFTLKISRVEAEDVGVYHCGQLLENPYTFGQGTKLEIK |
| 0.0062 µg/mL and 0.04 nM | 509 ng/mL | P1AE5752 (antibody, V domains shown, Humanized 5F11 IgG; PGLALA Fc implied by the CAR-J assay; also called 5F11_VH1d + 5F11_VL2a) VH: EVQLVESGGGVVQPGRSLRLSCAASGFSFSNYGMAWVRQAPGKGLEWVASISTGGGNTYYADSVKGRFTISRDNAKNTLYLQMNSLRAEDTAVYYCTRHDRGGLYWGQGTMVTVSS VL: DIVMTQSPLSLPVTPGEPASISCRSSKSLLHSNGITYVYWYLQKPGQSPQLLIYRMSNRASGVPDRFSGSGSGTDFTLKISRVEAEDVGVYHCGQLLENPYTFGQGTKLEIK |
| 0.0037 µg/mL and 0.02 nM | 1.38 ng/mL | P1AE5736 (antibody, V domains shown, Humanized 5F11 IgG; PGLALA Fc implied by the CAR-J assay; also called 5F11_VH1a + 5F11_VL2a) VH: QVQLVESGGGVVQPGRSLRLSCAASGFSFSNYGMAWVRQAPGKGLEWVASISTGGGNTYYRDSVKGRFTISRDNSKNTLYLQMNSLRAEDTAVYYCTRHDRGGLYWGQGTMVTVSS VL: DIVMTQSPLSLPVTPGEPASISCRSSKSLLHSNGITYVYWYLQKPGQSPQLLIYRMSNRASGVPDRFSGSGSGTDFTLKISRVEAEDVGVYHCGQLLENPYTFGQGTKLEIK |
